This note sets out measurements from the supplement of paper PMC9112550, “Optimization of the antimicrobial peptide Bac7 by deep mutational scanning” (BMC Biology, 2022).

This series concerns Escherichia coli TOP10. As to the kind of experiment: shrunken log2 fold change of peptide-encoding DNA abundance (4.5 h post-induction vs induction); higher = less antimicrobial activity (less host growth inhibition). As to conditions: time post-induction: 4.5 h; library: site-saturation at positions 5, 18, 19, 20.
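Further: peptides expressed intracellularly from a pBAD plasmid library in pooled LB shake-flask culture, induced with 0.3% L-arabinose, DNA abundance read by NGS, three biological replicates, DESeq2 with apeglm shrinkage.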

For RRIRKRPPRLPRPRPRPHPLPRP, the “shrunken log2 fold change” value stood at 0.393.
The same measure for RRIRCRPPRLPRPRPRPHRPPRP: -0.0186; for RRIRMRPPRLPRPRPRPQSGPRP: -0.0103.
As to RRIRARPPRLPRPRPRPLWGPRP, the “shrunken log2 fold change” value is 0.308.
The same measure for RRIRLRPPRLPRPRPRPMKAPRP: -0.0274; for RRIRKRPPRLPRPRPRPMVVPRP: -0.0348.
In the case of RRIRMRPPRLPRPRPRPVMEPRP, the “shrunken log2 fold change” value is -0.00102.
As for RRIRYRPPRLPRPRPRPCNQPRP, the figure is -0.224; as for RRIRFRPPRLPRPRPRPITGPRP, -0.107.
For RRIRMRPPRLPRPRPRPMVFPRP, the “shrunken log2 fold change” value stood at 0.0369.
As to RRIRMRPPRLPRPRPRPAVYPRP, the “shrunken log2 fold change” value was 0.265.
In the case of RRIRSRPPRLPRPRPRPQDMPRP, the “shrunken log2 fold change” value turned out to be 0.035.
As for RRIRFRPPRLPRPRPRPRWGPRP, the figure is 0.143; as for RRIRYRPPRLPRPRPRPRHSPRP, -0.127.
As for RRIRQRPPRLPRPRPRPNWFPRP, the figure is -0.151; as for RRIRDRPPRLPRPRPRPEIMPRP, 0.245; as for RRIRQRPPRLPRPRPRPMMWPRP, 0.0311.
In the case of RRIRNRPPRLPRPRPRPVTPPRP, the “shrunken log2 fold change” value came to 0.0444.
For RRIRGRPPRLPRPRPRPYHAPRP, the “shrunken log2 fold change” value worked out at 0.142.
On to RRIRDRPPRLPRPRPRPGRSPRP, for which the “shrunken log2 fold change” value turned out to be 0.0526.
Turning to RRIRFRPPRLPRPRPRPWGFPRP, the “shrunken log2 fold change” value is 0.0091.
As for RRIRLRPPRLPRPRPRPDDVPRP, the figure is -0.00776; as for RRIRCRPPRLPRPRPRPVVMPRP, -0.138; as for RRIRCRPPRLPRPRPRPLENPRP, -0.102.
The same measure for RRIRWRPPRLPRPRPRPRHHPRP: -0.0574; for RRIRQRPPRLPRPRPRPMSWPRP: -0.0294.
As for RRIRCRPPRLPRPRPRPRDMPRP, the figure is -0.167.
As to RRIRKRPPRLPRPRPRPHDMPRP, the “shrunken log2 fold change” value was 0.0328.
The same measure for RRIRVRPPRLPRPRPRPLPSPRP: 0.244.
The same measure for RRIRLRPPRLPRPRPRPCYLPRP: -0.856; for RRIRSRPPRLPRPRPRPCSLPRP: -0.484.
Regarding RRIRWRPPRLPRPRPRPKAGPRP, the “shrunken log2 fold change” value turned out to be 0.538.
The same measure for RRIRWRPPRLPRPRPRPTNSPRP: -0.39; for RRIRCRPPRLPRPRPRPCVRPRP: -0.163; for RRIRYRPPRLPRPRPRPQPIPRP: -0.397.
The same measure for RRIRARPPRLPRPRPRPEIIPRP: 0.396; for RRIRQRPPRLPRPRPRPDAMPRP: 0.0556.
With RRIRARPPRLPRPRPRPQFVPRP, the “shrunken log2 fold change” value was -0.0892.
As for RRIRHRPPRLPRPRPRPVEVPRP, the figure is 0.0201; as for RRIRERPPRLPRPRPRPYMSPRP, -0.0135.
Turning to RRIRFRPPRLPRPRPRPPETPRP, the “shrunken log2 fold change” value was 0.261.
As for RRIRWRPPRLPRPRPRPCQTPRP, the figure is -0.0122; as for RRIRMRPPRLPRPRPRPLAYPRP, -0.093.
The same measure for RRIRQRPPRLPRPRPRPRPDPRP: 0.191; for RRIRFRPPRLPRPRPRPANYPRP: -0.43.
The same measure for RRIRGRPPRLPRPRPRPFMGPRP: -0.123; for RRIRWRPPRLPRPRPRPNNIPRP: -0.779; for RRIRFRPPRLPRPRPRPITVPRP: -0.177.
Turning to RRIRFRPPRLPRPRPRPPSRPRP, the “shrunken log2 fold change” value was 0.551.
Regarding RRIRNRPPRLPRPRPRPCPGPRP, the “shrunken log2 fold change” value came out at 0.00341.
As for RRIRNRPPRLPRPRPRPEDYPRP, the figure is -0.133; as for RRIRQRPPRLPRPRPRPTDNPRP, -0.335; as for RRIRMRPPRLPRPRPRPCQGPRP, -0.168.
As for RRIRWRPPRLPRPRPRPMVKPRP, the “shrunken log2 fold change” value amounted to 0.17.
As for RRIRNRPPRLPRPRPRPFMFPRP, the figure is -0.399; as for RRIRTRPPRLPRPRPRPTAWPRP, 0.48.
Take RRIRDRPPRLPRPRPRPKAVPRP: the “shrunken log2 fold change” value is -0.00884.
As for RRIRMRPPRLPRPRPRPNFAPRP, the figure is 0.318; as for RRIRHRPPRLPRPRPRPNWPPRP, 0.234.
Regarding RRIRVRPPRLPRPRPRPQIMPRP, the “shrunken log2 fold change” value is -0.745.
As for RRIRGRPPRLPRPRPRPELGPRP, the figure is 1.45; as for RRIRKRPPRLPRPRPRPPNRPRP, 0.151; as for RRIRYRPPRLPRPRPRPQGSPRP, -0.19.
The same measure for RRIRMRPPRLPRPRPRPDTQPRP: 0.393; for RRIRPRPPRLPRPRPRPWDCPRP: -0.0719; for RRIRPRPPRLPRPRPRPCPNPRP: -0.0908.
As for RRIRGRPPRLPRPRPRPLSKPRP, the “shrunken log2 fold change” value worked out at 0.425.
The same measure for RRIRWRPPRLPRPRPRPSMAPRP: 0.266; for RRIRMRPPRLPRPRPRPPIEPRP: 0.309.
Take RRIRPRPPRLPRPRPRPPVCPRP: the “shrunken log2 fold change” value stood at 0.409.
As for RRIRYRPPRLPRPRPRPKNLPRP, the figure is -0.36; as for RRIRNRPPRLPRPRPRPGRPPRP, 0.123.
Regarding RRIRARPPRLPRPRPRPPIKPRP, the “shrunken log2 fold change” value is -0.0438.
Regarding RRIRRRPPRLPRPRPRPWRVPRP, the “shrunken log2 fold change” value turned out to be 0.277.
As for RRIRVRPPRLPRPRPRPYENPRP, the figure is -0.293; as for RRIRVRPPRLPRPRPRPHDLPRP, -0.226; as for RRIRDRPPRLPRPRPRPLIGPRP, 0.239.
Turning to RRIRRRPPRLPRPRPRPFKIPRP, the “shrunken log2 fold change” value is -0.00337.
As for RRIRGRPPRLPRPRPRPNNRPRP, the “shrunken log2 fold change” value is -0.112.
As for RRIRTRPPRLPRPRPRPLLSPRP, the figure is 0.0198; as for RRIRARPPRLPRPRPRPVCPPRP, 0.139; as for RRIRNRPPRLPRPRPRPDHGPRP, -0.319.
As for RRIRKRPPRLPRPRPRPPDGPRP, the figure is 0.992; as for RRIRTRPPRLPRPRPRPNTDPRP, -0.615.
The same measure for RRIRFRPPRLPRPRPRPINFPRP: -0.601; for RRIRCRPPRLPRPRPRPRLQPRP: 0.425; for RRIRVRPPRLPRPRPRPCYAPRP: -0.162.
On to RRIRMRPPRLPRPRPRPTQFPRP, for which the “shrunken log2 fold change” value worked out at 0.178.
The same measure for RRIRQRPPRLPRPRPRPAGGPRP: 0.204; for RRIRPRPPRLPRPRPRPLMKPRP: -0.181; for RRIRDRPPRLPRPRPRPKEMPRP: -0.00146.
In the case of RRIRPRPPRLPRPRPRPSMAPRP, the “shrunken log2 fold change” value is -0.0637.
As for RRIRRRPPRLPRPRPRPRRPPRP, the figure is 0.639; as for RRIRQRPPRLPRPRPRPFCGPRP, 0.0215; as for RRIRNRPPRLPRPRPRPCCRPRP, -0.0438.
With RRIRKRPPRLPRPRPRPANIPRP, the “shrunken log2 fold change” value turned out to be 0.214.
The same measure for RRIRDRPPRLPRPRPRPYRRPRP: -0.0062; for RRIRDRPPRLPRPRPRPYYQPRP: -1.03; for RRIRARPPRLPRPRPRPLYYPRP: -0.316.
On to RRIRNRPPRLPRPRPRPSHHPRP, for which the “shrunken log2 fold change” value was -0.421.
As for RRIRTRPPRLPRPRPRPEWVPRP, the figure is 0.457.
As for RRIRDRPPRLPRPRPRPKDFPRP, the figure is -0.00804; as for RRIRNRPPRLPRPRPRPVTNPRP, 0.0485.
Turning to RRIRDRPPRLPRPRPRPQDRPRP, the “shrunken log2 fold change” value was -0.0933.
RRIRDRPPRLPRPRPRPICHPRP: the “shrunken log2 fold change” value amounted to 0.139.
On to RRIRSRPPRLPRPRPRPVGGPRP, for which the “shrunken log2 fold change” value amounted to 0.433.
Take RRIRPRPPRLPRPRPRPNPTPRP: the “shrunken log2 fold change” value came out at 0.0721.
As to RRIRRRPPRLPRPRPRPIGKPRP, the “shrunken log2 fold change” value was -0.0155.
As for RRIRARPPRLPRPRPRPKMGPRP, the “shrunken log2 fold change” value is 0.297.
As for RRIRKRPPRLPRPRPRPPMRPRP, the figure is 0.918; as for RRIRLRPPRLPRPRPRPGAKPRP, -0.548; as for RRIRIRPPRLPRPRPRPKNFPRP, -0.0927.
As for RRIRRRPPRLPRPRPRPAGQPRP, the figure is 1.41; as for RRIRARPPRLPRPRPRPVLMPRP, 0.199; as for RRIRARPPRLPRPRPRPGPVPRP, 0.611.
Consider RRIRSRPPRLPRPRPRPEVFPRP, for which the “shrunken log2 fold change” value stood at 0.0779.
For RRIRQRPPRLPRPRPRPDEEPRP, the “shrunken log2 fold change” value was -0.0445.
Turning to RRIRDRPPRLPRPRPRPWYMPRP, the “shrunken log2 fold change” value was -0.315.
Turning to RRIRRRPPRLPRPRPRPTEQPRP, the “shrunken log2 fold change” value is -0.0468.
The same measure for RRIRNRPPRLPRPRPRPEALPRP: 0.102.
For the sequence RRIRARPPRLPRPRPRPGYVPRP, the “shrunken log2 fold change” value is -0.0339.
As to RRIRTRPPRLPRPRPRPVIDPRP, the “shrunken log2 fold change” value was -0.0797.
As for RRIRQRPPRLPRPRPRPRQMPRP, the figure is 0.297; as for RRIRIRPPRLPRPRPRPSDLPRP, -0.0735; as for RRIRRRPPRLPRPRPRPSVSPRP, -0.0175.
